Measurements from patent US11325966.

Legend:
Assay in all cases: cell-based or functional assay
JR-CSF N295A (HIV-1) = JR-CSF N295A (HIV-1) (UniProt P20871)
BG505 (T332N) (HIV-1) = target: BG505 (T332N) (HIV-1)
JR-CSF (HIV-1) = JR-CSF (HIV-1) (UniProt P20871)
[1] = target: HIV-1 YU2 Env N280Y, on pseudovirus (HIV-1) (UniProt P35961)
[2] = target: HIV-1 envelope (Env) of pseudovirus YU2_N276D (HIV-1) (UniProt P35961)
[3] = target: HIV-1 envelope (Env) of pseudovirus X1632_S2_B10 (HIV-1)
[4] = target: HIV-1 envelope (Env) of pseudovirus TRO.11 (HIV-1)
[5] = target: HIV-1 envelope (Env) of pseudovirus Q842.d12 (HIV-1)
[6] = target: HIV-1 envelope (Env) of pseudovirus Q769.d22 (HIV-1)
[7] = target: HIV-1 envelope (Env) of pseudovirus 191955_A11 (HIV-1)
[8] = target: HIV-1 envelope (Env) of pseudovirus 249M B10 (HIV-1)
[9] = target: HIV-1 envelope (Env) of pseudovirus 231965.c01 (HIV-1)
[10] = target: HIV-1 envelope (Env) of pseudovirus 246F C1G (HIV-1)
[11] = target: HIV-1 envelope (Env) of pseudovirus SC05_8C11_2344 (HIV-1)
[12] = target: HIV-1 envelope (Env) of pseudovirus 3365.v2.c2 (HIV-1)
[13] = target: HIV-1 envelope (Env) of pseudovirus CNE5 (HIV-1)
[14] = target: HIV-1 envelope (Env) of pseudovirus HIV-001428-2.42 (HIV-1)
[15] = target: HIV-1 envelope (Env) of pseudovirus CNE20 (HIV-1)
[16] = target: HIV-1 envelope (Env) of pseudovirus 9004SS_A3_4 (HIV-1)
[17] = target: HIV-1 envelope (Env) of pseudovirus 6480.v4.c25 (HIV-1)
[18] = target: HIV-1 envelope (Env) of pseudovirus 928-28 (HIV-1)
[19] = target: HIV-1 envelope (Env) of pseudovirus Ce703010054_2A2 (HIV-1)
[20] = target: HIV-1 Env of pseudovirus 1054_07_TC4_1499 (HIV-1)
[21] = target: HIV-1 Env of pseudovirus REJO4541.67 (HIV-1)
[22] = target: HIV-1 Env of pseudovirus BJOX015000.11.5 (HIV-1)
[23] = target: HIV-1 Env of pseudovirus X2088_c9 (HIV-1)
[24] = target: HIV-1 Env of pseudovirus CNE53 (HIV-1)
[25] = target: HIV-1 Env of pseudovirus P1981_C5_3 (HIV-1)
[26] = target: HIV-1 Env of pseudovirus BJOX025000.01.1 (HIV-1)
[27] = target: HIV-1 Env of pseudovirus CNE21 (HIV-1)
[28] = target: HIV-1 Env of pseudovirus BJOX028000.10.3 (HIV-1)
[29] = target: HIV-1 Env of pseudovirus X1254_c3 (HIV-1)
[30] = target: HIV-1 Env of pseudovirus CNE52 (HIV-1)
[31] = target: HIV-1 Env of pseudovirus 6244_13_B5_4576 (HIV-1)
[32] = target: HIV-1 Env of pseudovirus Ce1172_H1 (HIV-1)
[33] = target: HIV-1 Env of pseudovirus ZM214M.PL15 (HIV-1)
[34] = target: HIV-1 Env of pseudovirus 6041.v3.c23 (HIV-1)
[35] = target: HIV-1 Env of pseudovirus Ce0682_E4 (HIV-1)
[36] = target: HIV-1 Env of pseudovirus 263-8 (HIV-1)

Molecule: 354BG8 (antibody)
- IC50 in TZM-bl assay (JR-CSF N295A (HIV-1)): 0.006 µg/mL
- IC50 in TZM-bl assay (BG505 (T332N) (HIV-1)): 0.007 µg/mL
- IC50 in TZM-bl assay (JR-CSF (HIV-1)): 0.009 µg/mL

Molecule: BG18 IgG (354BG18) (antibody)
- IC50 in TZM-bl assay [1]: 0.005 µg/mL
- IC80 in TZM-bl assay [1]: 0.016 µg/mL

Molecule: BG1 (antibody)
- IC50 in TZM-bl assay [2]: 18.8 µg/mL
- IC80 in TZM-bl assay [2]: > 30 µg/mL
- IC50 in TZM-bl assay [3]: 0.079 µg/mL
- IC80 in TZM-bl assay [3]: 0.25 µg/mL
- IC50 in TZM-bl assay [4]: > 30 µg/mL
- IC80 in TZM-bl assay [4]: > 30 µg/mL
- IC50 in TZM-bl assay [5]: 1.4 µg/mL
- IC80 in TZM-bl assay [5]: 4.3 µg/mL
- IC50 in TZM-bl assay [6]: > 30 µg/mL
- IC80 in TZM-bl assay [6]: > 30 µg/mL
- IC50 in TZM-bl assay [7]: 0.008 µg/mL
- IC80 in TZM-bl assay [7]: 0.018 µg/mL
- IC50 in TZM-bl assay [8]: 1.47 µg/mL
- IC80 in TZM-bl assay [8]: 5.45 µg/mL
- IC50 in TZM-bl assay [9]: > 30 µg/mL
- IC80 in TZM-bl assay [9]: > 30 µg/mL
- IC50 in TZM-bl assay [10]: > 30 µg/mL
- IC80 in TZM-bl assay [10]: > 30 µg/mL
- IC50 in TZM-bl assay [11]: > 30 µg/mL
- IC80 in TZM-bl assay [11]: > 30 µg/mL
- IC50 in TZM-bl assay [12]: 1.16 µg/mL
- IC80 in TZM-bl assay [12]: 4.27 µg/mL
- IC50 in TZM-bl assay [13]: 0.351 µg/mL
- IC80 in TZM-bl assay [13]: 1.28 µg/mL
- IC50 in TZM-bl assay [14]: 1.09 µg/mL
- IC80 in TZM-bl assay [14]: 3.12 µg/mL
- IC50 in TZM-bl assay [15]: 4.26 µg/mL
- IC80 in TZM-bl assay [15]: > 30 µg/mL
- IC50 in TZM-bl assay [16]: > 30 µg/mL
- IC80 in TZM-bl assay [16]: > 30 µg/mL
- IC50 in TZM-bl assay [17]: > 30 µg/mL
- IC80 in TZM-bl assay [17]: > 30 µg/mL
- IC50 in TZM-bl assay [18]: > 30 µg/mL
- IC80 in TZM-bl assay [18]: > 30 µg/mL
- IC50 in TZM-bl assay [19]: > 30 µg/mL
- IC80 in TZM-bl assay [19]: > 30 µg/mL

B1: 10-1074 (antibody, V domains shown)
VH: QVQLQESGPGLVKPSETLSVTCSVSGDSMNNYYWTWIRQSPGKGLEWIGYISDRESATYNPSLNSRVVISRDTSKNQLSLKLNSVTPADTAVYYCATARRGQRIYGVVSFGEFFYYYSMDVWGKGTTVTVSS
VL: SYVRPLSVALGETARISCGRQALGSRAVQWYQHRPGQAPILLIYNNQDRPSGIPERFSGTPDINFGTRATLTISGVEAGDEADYYCHMWDSRSGFSWSFGGATRLTVL
- IC50 in TZM-bl assay [20]: 0.048 µg/mL
- IC80 in TZM-bl assay [20]: 0.222 µg/mL
- IC50 in TZM-bl assay [21]: > 10 µg/mL
- IC80 in TZM-bl assay [21]: > 10 µg/mL
- IC50 in TZM-bl assay [22]: > 10 µg/mL
- IC80 in TZM-bl assay [22]: > 10 µg/mL
- IC50 in TZM-bl assay [23]: 0.003 µg/mL
- IC80 in TZM-bl assay [23]: 0.01 µg/mL
- IC50 in TZM-bl assay [24]: 0.013 µg/mL
- IC80 in TZM-bl assay [24]: 0.058 µg/mL
- IC50 in TZM-bl assay [25]: 0.004 µg/mL
- IC80 in TZM-bl assay [25]: 0.013 µg/mL
- IC50 in TZM-bl assay [26]: > 10 µg/mL
- IC80 in TZM-bl assay [26]: > 10 µg/mL
- IC50 in TZM-bl assay [27]: 0.047 µg/mL
- IC80 in TZM-bl assay [27]: 0.124 µg/mL
- IC50 in TZM-bl assay [28]: > 10 µg/mL
- IC80 in TZM-bl assay [28]: > 10 µg/mL
- IC50 in TZM-bl assay [29]: 0.063 µg/mL
- IC80 in TZM-bl assay [29]: 0.239 µg/mL
- IC50 in TZM-bl assay [30]: 1.99 µg/mL
- IC80 in TZM-bl assay [30]: 9.76 µg/mL
- IC50 in TZM-bl assay [31]: 0.091 µg/mL
- IC80 in TZM-bl assay [31]: 0.38 µg/mL
- IC50 in TZM-bl assay [32]: 0.019 µg/mL
- IC80 in TZM-bl assay [32]: 0.083 µg/mL
- IC50 in TZM-bl assay [33]: 0.415 µg/mL
- IC80 in TZM-bl assay [33]: 2.97 µg/mL
- IC50 in TZM-bl assay [34]: > 10 µg/mL
- IC80 in TZM-bl assay [34]: > 10 µg/mL
- IC50 in TZM-bl assay [35]: > 10 µg/mL
- IC80 in TZM-bl assay [35]: > 10 µg/mL
- IC50 in TZM-bl assay [36]: 0.416 µg/mL
- IC80 in TZM-bl assay [36]: 5.71 µg/mL
